Data as given in patent US20150087577A1 (POLYPHOR, published 2015).
Bridges are numbered along the chain shown (N, C = ends). [ ]: non-standard residue; d: D form. Phe(4-F) = N[C@@H](Cc1ccc(F)cc1)C(=O)O; 2Nal = N[C@@H](Cc1ccc2ccccc2c1)C(=O)O; Cit = NC(=O)NCCC[C@H](N)C(=O)O; Dab = NCC[C@H](N)C(=O)O

B1: Example 98 (peptide)
peptide: cyclo(YRVCRG[dP]RR[2Nal]CYQK[dP]P)
modifications: disulfide 4-11
SMILES: CC(C)[C@@H]1NC(=O)[C@H](CCCNC(=N)N)NC(=O)[C@H](Cc2ccc(O)cc2)NC(=O)[C@@H]2CCCN2C(=O)[C@H]2CCCN2C(=O)[C@H](CCCCN)NC(=O)[C@H](CCC(N)=O)NC(=O)[C@H](Cc2ccc(O)cc2)NC(=O)[C@@H]2CSSC[C@H](NC1=O)C(=O)N[C@@H](CCCNC(=N)N)C(=O)NCC(=O)N1CCC[C@@H]1C(=O)N[C@@H](CCCNC(=N)N)C(=O)N[C@@H](CCCNC(=N)N)C(=O)N[C@@H](Cc1ccc3ccccc3c1)C(=O)N2
B2: Example 99 (peptide)
peptide: cyclo(YR[Phe(4-F)]CRG[dP]RR[2Nal]CYQK[dP]P)
modifications: disulfide 4-11
SMILES: N=C(N)NCCC[C@@H]1NC(=O)[C@@H]2CSSC[C@H](NC(=O)[C@H](Cc3ccc4ccccc4c3)NC(=O)[C@H](CCCNC(=N)N)NC(=O)[C@H](CCCNC(=N)N)NC(=O)[C@H]3CCCN3C(=O)CNC1=O)C(=O)N[C@@H](Cc1ccc(O)cc1)C(=O)N[C@@H](CCC(N)=O)C(=O)N[C@@H](CCCCN)C(=O)N1CCC[C@@H]1C(=O)N1CCC[C@H]1C(=O)N[C@@H](Cc1ccc(O)cc1)C(=O)N[C@@H](CCCNC(=N)N)C(=O)N[C@@H](Cc1ccc(F)cc1)C(=O)N2
B3: Example 100 (peptide)
peptide: cyclo(YRMCRG[dP]RR[2Nal]CYQK[dP]P)
modifications: disulfide 4-11
SMILES: CSCC[C@@H]1NC(=O)[C@H](CCCNC(=N)N)NC(=O)[C@H](Cc2ccc(O)cc2)NC(=O)[C@@H]2CCCN2C(=O)[C@H]2CCCN2C(=O)[C@H](CCCCN)NC(=O)[C@H](CCC(N)=O)NC(=O)[C@H](Cc2ccc(O)cc2)NC(=O)[C@@H]2CSSC[C@H](NC1=O)C(=O)N[C@@H](CCCNC(=N)N)C(=O)NCC(=O)N1CCC[C@@H]1C(=O)N[C@@H](CCCNC(=N)N)C(=O)N[C@@H](CCCNC(=N)N)C(=O)N[C@@H](Cc1ccc3ccccc3c1)C(=O)N2
B4: Example 101 (peptide)
peptide: cyclo(YR[Cit]CSG[dP]RR[2Nal]CYQK[dP]P)
modifications: disulfide 4-11
SMILES: N=C(N)NCCC[C@@H]1NC(=O)[C@H](CCCNC(=N)N)NC(=O)[C@H]2CCCN2C(=O)CNC(=O)[C@H](CO)NC(=O)[C@@H]2CSSC[C@H](NC(=O)[C@H](Cc3ccc4ccccc4c3)NC1=O)C(=O)N[C@@H](Cc1ccc(O)cc1)C(=O)N[C@@H](CCC(N)=O)C(=O)N[C@@H](CCCCN)C(=O)N1CCC[C@@H]1C(=O)N1CCC[C@H]1C(=O)N[C@@H](Cc1ccc(O)cc1)C(=O)N[C@@H](CCCNC(=N)N)C(=O)N[C@@H](CCCNC(N)=O)C(=O)N2
B5: Example 102 (peptide)
peptide: cyclo(YRSCRG[dP]RRWCY[Cit]D[dP]P)
modifications: disulfide 4-11
SMILES: N=C(N)NCCC[C@@H]1NC(=O)[C@@H]2CSSC[C@H](NC(=O)[C@H](Cc3c[nH]c4ccccc34)NC(=O)[C@H](CCCNC(=N)N)NC(=O)[C@H](CCCNC(=N)N)NC(=O)[C@H]3CCCN3C(=O)CNC1=O)C(=O)N[C@@H](Cc1ccc(O)cc1)C(=O)N[C@@H](CCCNC(N)=O)C(=O)N[C@@H](CC(=O)O)C(=O)N1CCC[C@@H]1C(=O)N1CCC[C@H]1C(=O)N[C@@H](Cc1ccc(O)cc1)C(=O)N[C@@H](CCCNC(=N)N)C(=O)N[C@@H](CO)C(=O)N2
B6: Example 103 (peptide)
peptide: cyclo(YR[Cit]CRG[dP]RR[2Nal]CY[Cit]E[dP]P)
modifications: disulfide 4-11
SMILES: N=C(N)NCCC[C@@H]1NC(=O)[C@@H]2CSSC[C@H](NC(=O)[C@H](Cc3ccc4ccccc4c3)NC(=O)[C@H](CCCNC(=N)N)NC(=O)[C@H](CCCNC(=N)N)NC(=O)[C@H]3CCCN3C(=O)CNC1=O)C(=O)N[C@@H](Cc1ccc(O)cc1)C(=O)N[C@@H](CCCNC(N)=O)C(=O)N[C@@H](CCC(=O)O)C(=O)N1CCC[C@@H]1C(=O)N1CCC[C@H]1C(=O)N[C@@H](Cc1ccc(O)cc1)C(=O)N[C@@H](CCCNC(=N)N)C(=O)N[C@@H](CCCNC(N)=O)C(=O)N2
B7: Example 104 (peptide)
peptide: cyclo(YRTCRG[dP][Dab]R[2Nal]CYQK[dP]P)
modifications: disulfide 4-11
SMILES: C[C@@H](O)[C@@H]1NC(=O)[C@H](CCCNC(=N)N)NC(=O)[C@H](Cc2ccc(O)cc2)NC(=O)[C@@H]2CCCN2C(=O)[C@H]2CCCN2C(=O)[C@H](CCCCN)NC(=O)[C@H](CCC(N)=O)NC(=O)[C@H](Cc2ccc(O)cc2)NC(=O)[C@@H]2CSSC[C@H](NC1=O)C(=O)N[C@@H](CCCNC(=N)N)C(=O)NCC(=O)N1CCC[C@@H]1C(=O)N[C@@H](CCN)C(=O)N[C@@H](CCCNC(=N)N)C(=O)N[C@@H](Cc1ccc3ccccc3c1)C(=O)N2
B8: Example 21 (peptide)
peptide: cyclo(YR[Cit]FRV[dP]RR[2Nal]VY[Cit]K[dP]P)
SMILES: CC(C)[C@@H]1NC(=O)[C@H](Cc2ccc3ccccc3c2)NC(=O)[C@H](CCCNC(=N)N)NC(=O)[C@H](CCCNC(=N)N)NC(=O)[C@H]2CCCN2C(=O)[C@H](C(C)C)NC(=O)[C@H](CCCNC(=N)N)NC(=O)[C@H](Cc2ccccc2)NC(=O)[C@H](CCCNC(N)=O)NC(=O)[C@H](CCCNC(=N)N)NC(=O)[C@H](Cc2ccc(O)cc2)NC(=O)[C@@H]2CCCN2C(=O)[C@H]2CCCN2C(=O)[C@H](CCCCN)NC(=O)[C@H](CCCNC(N)=O)NC(=O)[C@H](Cc2ccc(O)cc2)NC1=O
B9: Example 105 (peptide)
peptide: cyclo(YH[Cit]CRG[dP]RRWCY[Cit]K[dP]P)
modifications: disulfide 4-11
SMILES: N=C(N)NCCC[C@@H]1NC(=O)[C@@H]2CSSC[C@H](NC(=O)[C@H](Cc3c[nH]c4ccccc34)NC(=O)[C@H](CCCNC(=N)N)NC(=O)[C@H](CCCNC(=N)N)NC(=O)[C@H]3CCCN3C(=O)CNC1=O)C(=O)N[C@@H](Cc1ccc(O)cc1)C(=O)N[C@@H](CCCNC(N)=O)C(=O)N[C@@H](CCCCN)C(=O)N1CCC[C@@H]1C(=O)N1CCC[C@H]1C(=O)N[C@@H](Cc1ccc(O)cc1)C(=O)N[C@@H](Cc1c[nH]cn1)C(=O)N[C@@H](CCCNC(N)=O)C(=O)N2
B10: Example 106 (peptide)
peptide: cyclo(YK[Cit]CRG[dP]RRWCY[Cit]K[dP]P)
modifications: disulfide 4-11
SMILES: N=C(N)NCCC[C@@H]1NC(=O)[C@@H]2CSSC[C@H](NC(=O)[C@H](Cc3c[nH]c4ccccc34)NC(=O)[C@H](CCCNC(=N)N)NC(=O)[C@H](CCCNC(=N)N)NC(=O)[C@H]3CCCN3C(=O)CNC1=O)C(=O)N[C@@H](Cc1ccc(O)cc1)C(=O)N[C@@H](CCCNC(N)=O)C(=O)N[C@@H](CCCCN)C(=O)N1CCC[C@@H]1C(=O)N1CCC[C@H]1C(=O)N[C@@H](Cc1ccc(O)cc1)C(=O)N[C@@H](CCCCN)C(=O)N[C@@H](CCCNC(N)=O)C(=O)N2

Target: human CXCR4 (human, UniProt P61073 1-352)
Sequence (P61073 whole entry): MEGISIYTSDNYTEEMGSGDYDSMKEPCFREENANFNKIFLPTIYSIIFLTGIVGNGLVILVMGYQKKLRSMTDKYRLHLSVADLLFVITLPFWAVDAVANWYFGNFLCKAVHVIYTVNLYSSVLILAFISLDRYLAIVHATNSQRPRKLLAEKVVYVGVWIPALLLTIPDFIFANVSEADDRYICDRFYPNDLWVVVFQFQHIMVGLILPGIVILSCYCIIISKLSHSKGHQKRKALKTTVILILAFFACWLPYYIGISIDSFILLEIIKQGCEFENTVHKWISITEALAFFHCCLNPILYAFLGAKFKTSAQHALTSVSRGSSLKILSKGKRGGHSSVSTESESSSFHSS
Assay: cell-based or functional assay

IC50 (nM) Ca2+ assay (method 2)	IC50 (nM) Ca2+ assay (method 1)	Binder
3.9 nM	–	B1
4.2 nM	–	B2
7 nM	–	B3
1.28 nM	–	B4
8 nM	–	B5
18.3 nM	–	B6
7.4 nM	–	B7
–	550 nM	B8
0.62 nM	–	B9
3.1 nM	–	B10
